Test results taken from the supplement of paper PMC10567573.

B1: CAMK2B (parent)
chain: YQQIKAGAYDFPSPEWDTVTPEAK

Variants of: B1
Assay: protein stability index of a GFP-peptide fusion (GPS, HEK-293T) (PSI 1-6); higher = more stable
Conditions: c terminus: a fixed tail appended
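Further: lentivirally expressed fusions sorted by FACS into six bins by GFP to DsRed ratio, PSI derived from sequencing read proportions per bin multiplied by bin number.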

Protein stability index, by site and new letter:
A8: I 3.05 | L 3.03 | S 3.75 | N 3.95 | P 3.02 | Y 3.31 | T 3.44 | V 3.16 | G 3.61 | R 3.14 | F 2.84 | D 3.91 | W 2.26 | M 3.44 | H 3.79 | K 3.66 | Q 3.68 | C 3.44 | E 3.95
I4: W 2.05 | V 3.93 | Y 3.21
A6: G 3.13 | C 3.37 | L 3.09 | M 3.96 | K 3.22 | Y 3.16 | N 3.44 | V 3.12 | H 3.24 | T 3.62 | Q 3.92 | D 4.28 | F 2.9 | R 2.38 | P 3.82 | I 2.77 | S 3.59 | E 4.41 | W 2.28
F11: S 4.36 | Y 3.95 | G 4 | Q 4.24 | I 3.8 | C 4 | R 3.73 | W 3.15 | T 4.43 | D 4.63 | E 4.72 | N 4.37 | V 4.15 | K 3.91 | L 3.97 | H 4.2 | A 4.58 | P 4.67 | M 4.04
D10: R 2.05 | H 2.54 | M 2.7 | C 2.25 | N 2.52 | A 2.72 | L 2.4 | W 2.83 | Q 2.67 | Y 1.79 | K 2.25 | T 2.61 | V 2.41 | P 2.7 | F 1.98 | E 3.55 | G 2.23 | I 1.99 | S 2.39
G7: Y 1.87 | L 3 | S 3.78 | Q 3.92 | V 3.53 | R 2.96 | N 3.77 | C 2.77 | H 3.69 | T 3.83 | K 3.27 | A 3.79 | M 3.23 | W 2.31 | D 3.99 | F 1.86 | I 3.25 | P 3.86 | E 4.23
K5: E 4.84 | V 3.77 | P 3.71 | M 4.04 | H 3.46 | N 3.92 | D 4.39 | I 3.35 | T 4 | L 3.6 | W 1.95 | Y 3.11 | G 3.88 | Q 3.77 | S 3.64 | F 3.12 | A 4.07 | R 3.34 | C 3.58
P12: E 4.09 | W 3.5 | R 2.34 | C 2.76 | K 3.3 | T 3.36 | F 2.25 | L 2.9 | Q 4 | D 4.01 | G 3.71 | A 2.94 | Y 3.71 | M 3.08 | H 3.21 | V 2.81 | N 3.94 | S 3.29 | I 3.21
S13: H 3.25 | K 3.4 | F 2.79 | E 4.12 | L 3.29 | N 3.69 | D 4.08 | G 4.11 | C 2.74 | I 3.37 | M 2.75 | A 3.24
Y9: V 4.13 | I 3.9 | H 4.14 | T 4.23 | Q 4.48 | L 4.04 | D 4.73 | E 4.71 | G 4.6 | F 3.5 | K 3.99 | N 4.26 | P 4.17 | M 4.1 | A 4.37 | W 2.48 | R 3.64 | S 4.3 | C 3.79
